Substitutions are numbered along the chain they refer to.
B1: B10v5x425 (bispecific antibody, V domains shown)
VL (c-MET arm): EPVLTQPPSVSVAPGETATIPCGGDSLGSKIVHWYQQRPGQAPLLVVYDDAARPSGIPERFSGSKSGTTATLTISSVEAGDEADYFCQVYDYHSDVEVFGGGTKLTVLGQPKAA
VH (c-MET arm): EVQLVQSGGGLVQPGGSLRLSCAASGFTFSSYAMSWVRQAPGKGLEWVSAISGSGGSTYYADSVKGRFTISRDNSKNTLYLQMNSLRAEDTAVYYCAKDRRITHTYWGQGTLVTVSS
VL (EGFR arm): DIQMTQSPSSLSASVGDRVTITCSASSSVTYMYWYQQKPGKAPKLLIYDTSNLASGVPSRFSGSGSGTDYTFTISSLQPEDIATYYCQQWSSHIFTFGQGTKVEIKR
VH (EGFR arm): QVQLVQSGAEVKKPGASVKVSCKASGYTFTSHWMHWVRQAPGQGLEWIGEFNPSNGRTNYNEKFKSKATMTVDTSTNTAYMELSSLRSEDTAVYYCASRDYDYDGRYFDYWGQGTLVTVSS
notes: c-MET x EGFR SEED bispecific
B2: B10x425 (bispecific antibody, V domains shown)
VL (c-MET arm): QSVLTQPPSTSGTPGQRVTISCFGSSSNVGVNTVNWYRQLPGTAPKLLIYDNNLRPSGVPERFSGSKSGTSASLAITGLQAEDEGDYYCQSYDSSLSDVVFGGGTKLTVLGQPKAG
VH (c-MET arm): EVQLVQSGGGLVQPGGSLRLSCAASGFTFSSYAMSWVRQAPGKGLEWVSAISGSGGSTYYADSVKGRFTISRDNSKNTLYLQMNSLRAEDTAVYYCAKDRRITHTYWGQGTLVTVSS
VL (EGFR arm): B1 VL (EGFR arm)
VH (EGFR arm): B1 VH (EGFR arm)
notes: c-MET x EGFR SEED bispecific
B3: CS06x425 (bispecific antibody, V domains shown)
VL (c-MET arm): QLVLTQSPSVSVAPGKTARITCGGNNIRNVGVHWYQKKPGQAPILVVYDDDDRPSGVPERFSGSNSGNTATLTISRVEAGDEADYYCQVWDSATDQRVFGGGTKLTVLGQPKAG
VH (c-MET arm): QVQLQQSGAEVKKPGSSAKVSCKASGGTFSSNAISWVRQAPGQGLEWMGGIIPIFGTAIYAQKFQGRVTITADESTSTAYMELSSLRSEDTAVYYCARDQRGYYYYYYYGMDVWGQGTTVTVSS
VL (EGFR arm): B1 VL (EGFR arm)
VH (EGFR arm): B1 VH (EGFR arm)
notes: c-MET x EGFR SEED bispecific
B4: B10v5x225-M (bispecific c-MET x EGFR SEEDbody) (bispecific antibody, V domains shown)
VH 1: not shown
VL 1: B1 VL (c-MET arm)
VH 2: EVQLVQSGAEVKKPGASVKVSCKASGFSLTNYGVHWMRQAPGQGLEWIGVIWSGGNTDYNTPFTSRVTITSDKSTSTAYMELSSLRSEDTAVYYCARALTYYDYEFAYWGQGTLVTVSS
VL 2: DIQMTQSPSSLSASVGDRVTITCRASQSIGTNIHWYQQKPGKAPKLLIKYASESISGVPSRFSGSGYGTDFTLTISSLQPEDVATYYCQQNYNWPTTFGQGTKVEIK
notes: SEEDbody format (IgG1 hinge-CH2-SEED CH3)
B5: CS06x225-L (bispecific antibody, V domains shown)
VL (c-MET arm): B3 VL (c-MET arm)
VH (c-MET arm): B3 VH (c-MET arm)
VL (EGFR arm): B4 VL 2 with Y92N
VH (EGFR arm): B4 VH 2 with S53R
notes: c-MET x EGFR SEED bispecific
B6: B10x225-L (bispecific antibody, V domains shown)
VL (c-MET arm): B2 VL (c-MET arm)
VH (c-MET arm): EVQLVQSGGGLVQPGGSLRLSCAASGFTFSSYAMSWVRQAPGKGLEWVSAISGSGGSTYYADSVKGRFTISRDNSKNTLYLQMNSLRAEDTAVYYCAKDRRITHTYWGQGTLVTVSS
VL (EGFR arm): B4 VL 2 with Y92N
VH (EGFR arm): B4 VH 2 with S53R
notes: c-MET x EGFR SEED bispecific; also called 225L, B10
B7: CS06x225-M (bispecific antibody, V domains shown)
VL (c-MET arm): B3 VL (c-MET arm)
VH (c-MET arm): B3 VH (c-MET arm)
VL (EGFR arm): B4 VL 2
VH (EGFR arm): B4 VH 2
notes: c-MET x EGFR SEED bispecific
B8: B10x225-M (bispecific antibody, V domains shown)
VL (c-MET arm): B2 VL (c-MET arm)
VH (c-MET arm): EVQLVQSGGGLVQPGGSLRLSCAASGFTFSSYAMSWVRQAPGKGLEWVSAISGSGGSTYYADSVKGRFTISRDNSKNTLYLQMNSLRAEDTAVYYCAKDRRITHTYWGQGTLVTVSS
VL (EGFR arm): B4 VL 2
VH (EGFR arm): B4 VH 2
notes: c-MET x EGFR SEED bispecific
B9: B10x225-H (bispecific antibody, V domains shown)
VL (c-MET arm): B2 VL (c-MET arm)
VH (c-MET arm): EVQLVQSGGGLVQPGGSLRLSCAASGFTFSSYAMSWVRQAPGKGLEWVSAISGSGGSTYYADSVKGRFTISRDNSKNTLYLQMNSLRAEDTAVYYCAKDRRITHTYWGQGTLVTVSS
VL (EGFR arm): B4 VL 2 with Y92N, N93E, T96N
VH (EGFR arm): B4 VH 2 with T100D
notes: c-MET x EGFR SEED bispecific
B10: oa 225-L (antibody, V domains shown)
VH: B4 VH 2 with S53R
VL: B4 VL 2 with Y92N
notes: one-armed (monovalent) anti-EGFR SEED molecule
B11: oa225-M (antibody, V domains shown)
VH: B4 VH 2
VL: B4 VL 2
notes: as for B10
B12: matuzumab (425) (antibody, V domains shown)
VH: B1 VH (EGFR arm)
VL: B1 VL (EGFR arm) with R107G

Molecular target: T1, c-MET and EGFR co-expressed on cells (human, UniProt P08581;P00533)
T1 construct: endogenous receptor on the cell surface; not a complex: two separate receptors on the same cell; used as target only for bispecific c-MET x EGFR molecules, whose cell staining cannot be split between the two arms; also called cells that carry both receptors: NCI-H441, EBC-1, A431, MKN-45, A549, HepG2 (cell line under assay)
Test: flow cytometry, A549 cells (c-MET+ EGFR++)

Binder	MFI at 100 nM
B1	328
B2	270
B3	268
B4	383
B5	212
B6	192
B7	264
B8	572
B9	454

Molecular target: T2, EGFR (epidermal growth factor receptor) on A549 cells (human, UniProt P00533 25-1210)
T2 construct: whole, on cells; Endogenous receptor of A549 cells; phosphorylation read out in cell lysates
Test: flow cytometry, A549 cells (c-MET+ EGFR++)

Binder	MFI at 100 nM
B10	91
B11	138

Molecular target: T3, EGFR on cells (human, UniProt P00533)
T3 construct: endogenous receptor on the cell surface; for A549 cells m5 is used; also called on NCI-H441, EBC-1, A431, MKN-45, HepG2 or T47D cells (cell line under assay)
Test: flow cytometry, HepG2 cells (c-MET+ EGFR+)

Binder	MFI at 100 nM
B10	22
B11	40

Molecular target: T1, c-MET and EGFR co-expressed on cells
Test: flow cytometry, HepG2 cells (c-MET+ EGFR+)

Binder	MFI at 100 nM
B1	348
B2	101
B3	164
B4	793
B5	254
B6	85
B7	330
B8	84
B9	100

Molecular target: T3, EGFR on cells
Test: flow cytometry, A431 cells (c-MET+ EGFR+++)

Binder	MFI at 100 nM
B10	1260
B11	1500

Molecular target: T1, c-MET and EGFR co-expressed on cells
Test: flow cytometry, A431 cells (c-MET+ EGFR+++)

Binder	MFI at 100 nM
B1	1430
B2	1120
B3	1350
B4	1290
B5	890
B6	947
B7	1170
B8	1480
B9	1980

Molecular target: T4, c-MET on cells (human, UniProt P08581)
T4 construct: endogenous receptor on the cell surface; for A549 cells m4 is used; also called HGFR; on NCI-H441, EBC-1, A431, MKN-45, SK-MEL2 or HepG2 cells (cell line under assay)
Test: flow cytometry, SK-MEL2 cells (c-MET+ EGFR-)

Binder	MFI at 100 nM	binding result
B1	213	–
B2	25	–
B3	132	–
B10	17	no binding (tested: 100 nM)
B4	457	–
B5	188	–
B6	23	–
B11	19	no binding (tested: 100 nM)
B7	236	–
B8	53	–
B9	64	–

Molecular target: T3, EGFR on cells
Test: flow cytometry, EBC-1 cells (c-MET+++ EGFR++)

Binder	MFI at 100 nM
B10	137
B11	189

Molecular target: T1, c-MET and EGFR co-expressed on cells
Test: flow cytometry, EBC-1 cells (c-MET+++ EGFR++)

Binder	MFI at 100 nM
B1	1960
B2	361
B3	1370
B4	2280
B5	2048
B6	434
B7	1870
B8	671
B9	948

Molecular target: T3, EGFR on cells
Test: flow cytometry, MKN-45 cells (c-MET+++ EGFR++)

Binder	MFI at 100 nM
B10	83
B11	144

Molecular target: T1, c-MET and EGFR co-expressed on cells
Test: flow cytometry, MKN-45 cells (c-MET+++ EGFR++)

Binder	MFI at 100 nM
B1	1280
B2	1260
B3	1450
B4	1270
B5	1530
B6	1220
B7	1470
B8	1790
B9	1320

Molecular target: T5, EGFR (soluble extracellular domain) (human, UniProt P00533)
T5 construct: soluble extracellular domain; also called Human EGFR extracellular domain, R&D Systems 1095-ER
Test: BLI (Octet), antibody on anti-human Fc biosensors, soluble EGFR ECD as analyte

Binder	Kd [nM]	koff [s⁻¹]	kon [M⁻¹ s⁻¹]
B12	12	0.0078	640000
B10	220	0.14	610000
B4	4.7	0.017	3.6e+06
B11	4.4	0.016	3.7e+06
B7	3.9	0.018	4.6e+06

Molecular target: T6, biotinylated recombinant human c-MET ECD (HGFR extracellular domain) (human, UniProt P08581 25-932, biotinylated (sites not given))
T6 construct: extracellular domain; also called human c-MET ECD-His
Test: BLI (Octet), antibody on anti-human Fc biosensors, soluble c-MET ECD as analyte

Binder	Kd [nM]	koff [s⁻¹]	kon [M⁻¹ s⁻¹]
B4	0.37	0.00015	400000
B7	0.21	0.00022	1.1e+06

Reference: patent US20180326085A1 (Merck KGaA, published 2018)
